HPLC separation of intracellular immunoreactive insulin species (processing of human proinsulin to mature insulin in engineered RIN cells) and NON (% TOTAL): non-amidated GLP-1 as percentage of total GLP-1 (non-amidated and amidated), by two specific immunoassays (% non-amidated of total GLP-1) data for three substances are collected here from patent US6110707.

The target of assay [1] is human preproinsulin (human). Conditions: scale: % of intracellular human insulin species left as proinsulin and intermediates.
In assay [2] the target is mutated human preproglucagon (arginine to alanine at amino acid residue 52) (human).
The target in assay [3] is human preproglucagon (human).

In assay [1], PC2 (from UniProt P28841) (enzyme) gave an HPLC separation of intracellular immunoreactive insulin species (processing of human proinsulin to mature insulin in engineered RIN cells) of 8. Take PC3 (from UniProt P28840) (enzyme): in assay [1], the HPLC separation of intracellular immunoreactive insulin species (processing of human proinsulin to mature insulin in engineered RIN cells) was found to be 8. As for “peptidylglycine alpha-amidating monooxygenase (PAM) (from UniProt P14925) (enzyme)”, the values for the NON (% TOTAL): non-amidated GLP-1 as percentage of total GLP-1 (non-amidated and amidated), by two specific immunoassays (% non-amidated of total GLP-1) in assay [2] and in assay [3] were 59 and 49, respectively.
